According to patent US20060269548A1 (published 2006):

T1: human VEGFR-3-Ig (human, UniProt P35916 25-775)
T1 construct: extracellular domain; also called hVEGFR-3; soluble VEGFR-3; not shown: immunoglobulin fusion part
T1 sequence (looked up): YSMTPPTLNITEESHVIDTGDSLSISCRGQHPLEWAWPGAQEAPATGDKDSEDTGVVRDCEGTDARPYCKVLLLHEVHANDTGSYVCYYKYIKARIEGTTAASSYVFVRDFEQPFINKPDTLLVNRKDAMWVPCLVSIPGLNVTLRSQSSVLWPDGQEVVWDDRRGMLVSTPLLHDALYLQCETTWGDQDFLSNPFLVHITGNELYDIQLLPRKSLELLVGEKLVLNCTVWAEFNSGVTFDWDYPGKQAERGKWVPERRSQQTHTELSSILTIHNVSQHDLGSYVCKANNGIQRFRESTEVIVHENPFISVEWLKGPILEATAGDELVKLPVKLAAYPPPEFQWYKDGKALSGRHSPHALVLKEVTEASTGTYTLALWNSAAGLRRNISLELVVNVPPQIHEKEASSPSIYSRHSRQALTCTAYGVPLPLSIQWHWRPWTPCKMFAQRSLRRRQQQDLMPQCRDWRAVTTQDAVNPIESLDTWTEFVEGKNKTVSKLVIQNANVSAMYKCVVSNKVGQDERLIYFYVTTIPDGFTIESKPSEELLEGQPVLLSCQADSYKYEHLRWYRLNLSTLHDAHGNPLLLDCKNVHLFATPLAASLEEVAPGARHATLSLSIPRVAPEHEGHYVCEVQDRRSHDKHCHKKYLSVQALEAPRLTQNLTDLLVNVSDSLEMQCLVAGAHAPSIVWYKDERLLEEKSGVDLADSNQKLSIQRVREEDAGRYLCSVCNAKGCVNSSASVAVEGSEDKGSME


Tests used:
[1] = biological target: T2, human VEGFR-2 immunoglobulin fusion protein (chimeric receptor protein immobilized on the biosensor chip) (human, UniProt P35968 20-764, limits assumed); experiment: BIAcore 2000 biosensor, receptor-Ig amine-coupled to CM5 chip, ligand injected
T2 construct: also called hVEGFR-2; not shown: immunoglobulin fusion part

human VEGFR-3-Ig = biological target: T1, human VEGFR-3-Ig; experiment: BIAcore 2000 biosensor, receptor-Ig on CM5 chip, ligand injected, 1:1 Langmuir global fit
Procedure: (§1) Chimeric receptor proteins were immobilized onto a carboxymethylated dextran surface. Growth factors were injected over the surface at a flow rate of 20 μl/min at the indicated concentrations.
(§2) Following immobilization, residual activated ester groups were blocked by treatment with 1 M ethanolamine hydrochloride pH 8.5 followed by washing with 10 mM diethylamine to remove non-covalently bound material. […] Samples were diluted in running buffer (10 mM HEPES pH 7.4, 150 mM NaCl, 3.4 mM EDTA, 0.005% Tween 20).

[2] = biological target: T2, human VEGFR-2 immunoglobulin fusion …; experiment: as above
Procedure: as §1, §2

T2 sequence (P35968 20-764 limits assumed, change not shown): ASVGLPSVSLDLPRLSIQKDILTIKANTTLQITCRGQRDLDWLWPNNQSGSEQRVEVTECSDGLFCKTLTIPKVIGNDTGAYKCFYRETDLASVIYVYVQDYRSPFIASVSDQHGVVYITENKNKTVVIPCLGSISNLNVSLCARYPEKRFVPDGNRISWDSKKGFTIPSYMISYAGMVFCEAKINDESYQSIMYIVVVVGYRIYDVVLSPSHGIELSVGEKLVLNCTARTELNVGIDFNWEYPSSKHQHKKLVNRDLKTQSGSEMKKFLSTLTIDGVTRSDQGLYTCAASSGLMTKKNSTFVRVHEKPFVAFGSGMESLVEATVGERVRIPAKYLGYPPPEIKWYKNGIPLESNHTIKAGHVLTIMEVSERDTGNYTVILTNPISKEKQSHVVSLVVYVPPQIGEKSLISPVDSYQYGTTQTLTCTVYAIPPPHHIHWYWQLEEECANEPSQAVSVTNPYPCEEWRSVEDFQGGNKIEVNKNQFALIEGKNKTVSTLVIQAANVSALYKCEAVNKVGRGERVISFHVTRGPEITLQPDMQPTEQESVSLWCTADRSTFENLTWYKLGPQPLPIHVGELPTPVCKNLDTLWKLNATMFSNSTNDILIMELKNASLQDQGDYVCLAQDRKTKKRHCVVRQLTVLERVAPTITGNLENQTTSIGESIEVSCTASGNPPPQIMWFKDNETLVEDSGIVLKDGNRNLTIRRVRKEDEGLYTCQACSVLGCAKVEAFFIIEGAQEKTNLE

binding result [1] | Kd (human VEGFR-3-Ig) [nM] | koff (human VEGFR-3-Ig) [s⁻¹] | kon (human VEGFR-3-Ig) [M⁻¹ s⁻¹] | Kd [2] [nM] | koff [2] [s⁻¹] | kon [2] [M⁻¹ s⁻¹] | Binder
no binding | 115 | 0.0004 | 3500 |  |  |  | recombinant human VEGF-C156S (Thr103 to Ile225) (ligand, also called hVEGF-C156S; VEGF-C56S) TEETIKFAAAHYNTEILKSIDNEWRKTQCMPREVCIDVGKEFGVATNTFFKPPSVSVYRCGGCCNSEGLQCMNTSTSYLSKTLFEITVPLSQGPKPVTISFANHTSCRCMSKLDVYRQVHSII
 | 4.4 | 0.000605 | 136000 | 22 | 0.00123 | 55000 | recombinant human VEGF-C (Thr103 to Leu215) (ligand, UniProt P49767 103-215, looked up, range 103-215; Produced and purified as in Joukov et al. 1997; also called hVEGF-C; wild type VEGF-C) TEETIKFAAAHYNTEILKSIDNEWRKTQCMPREVCIDVGKEFGVATNTFFKPPCVSVYRCGGCCNSEGLQCMNTSTSYLSKTLFEITVPLSQGPKPVTISFANHTSCRCMSKL
